Measured values as given in patent US20190314470A1 (UNITED STATES GOVERNMENT AS REPRESENTED BY THE DEPARTMENT …, published 2019).

Target: T1, K-RAS protein (recombinant, abcam) (UniProt P01116-2 1-188, limits assumed)
T1 construct: Bought recombinant protein used in solution in the far western; One partner was labelled with the cysteine-reactive dye NT-647
Assay: quantification of the anti-RAS far western of FIG. 2E; two VAMP3 preparations
Procedure: Far Western Blotting. […] The membrane was then washed in 5% milk in TBST and incubated with horseradish peroxidase (HRP)-conjugated secondary antibody for 1 hr at RT. The membrane was then developed using the SuperSignal West Dura reagent (ThermoFischer). Quantification was done using ImageJ. For loading controls, duplicate membranes were spotted and immediately stained with a Coomassie Stain Kit (Biorad).

binding result: no binding (tested: 2 µg spotted)
B1: VAMP3 (recombinant, LSbiosciences / MyBiosource) (other, UniProt Q15836 1-77, looked up)
chain: MSTGPTAATGSNRRLQQTQNQVDEVVDIMRVNVDKVLERDQKLSELDDRADALQAGASQFETSAAKLKRKYWWKNCK
notes: Two commercial preparations were spotted in the far western; also called vesicle-associated membrane protein 3
